# Patent publication US7297332B2, “Protease, a gene therefor and the use thereof” (Korean Research Institute of Bioscience and Biotechnology, priority 2000, dated 2007)
# Tests used:
# [1] = system: azocasein; assay: Effect of pH on the activity and stability of the protease; format: biochemical; conditions: for relative activity: 30 minutes
# Experimental: (§1) Enzyme activity of the protease was measured according to the method described by Braun & Shmitz (Braun, V. & Schmitz, G., Arch. Microbiol. 124, 55-61, 1980). A substrate solution was prepared by dissolving 0.24 g of azocasein in 10 ml of 50 mM phosphate buffer (pH 7.5). The 300 □ of the substrate solution was mixed with 100 □ of bacterial culture solution and reacted at 37° C. for 30 minutes. Then, 300 □ of 10% trichloride acetate was added to the reaction solution and incubated at ambient temperature for 1 hour. The reaction solution was centrifuged at 7,000 rpm until pellet and supernatant was separated substantially. After adding 30 0 of 10% sodium hydroxide (NaOH) to the supernatant, the absorbance was measured at 420 nm. The enzymatic titer was defined as 1 unit by the 1.0 fold increment of absorbance value.
# In order to examine the pH-dependence of the protease of the invention, the inventors prepared various substrate solution with different pH. The each substrate solution was buffered with citrate-phosphate(pH 3.0 to 7.0), sodium phosphate(pH 7.0 to 9.0), Tris-HCl(pH 7.0 to 10.0), and glysine-caustic soda(pH 9.0 to 12.0), respectively. The relative protease activity was measured after mixing enzyme with each of the above substrate solution at 37° C. for 30 minutes. The measurement of the relative protease activity was followed by the method described in Example 3(1).
# [2] = system: azocasein; assay: Effects of salts on the activity of the protease; format: biochemical; conditions: for relative activity: 37° C., 4 hours
# Experimental: as §1
# In order to examine effects of salts on the activity of protease, the relative enzyme activity was measured at 37° C. for 4 hours in the presence of various concentrations of sodium chloride solution ranging from 0 to 1700 mM. The relative activity was measured according to the method described in Example 3(1). For comparison, the protease derived from Serratia marcescens SM6 was used as a control.
# [3] = system: azocasein; assay: Effect of heat on the activity and stability of the protease; format: biochemical
# Experimental: as §1
# In order to examine the effect of heat on the activity and stability of the protease, the relative enzyme activity was measured at temperatures ranging from 4° C. to 80° C. The measurement of the activity was performed according to the method described in Example 3(1).
# [4] = system: albumin, casein, collagen, elastin and hemoglobin; assay: Activity of the protease on various substrates; format: biochemical; conditions: all the other substrates including hemoglobin
# Experimental: In order to examine the degrading ability of the enzyme against various substrates, the enzyme reactions were performed on substrates such as albumin, casein, collagen, elastin and hemoglobin. […] In 24 hour reaction, all the other substrates including hemoglobin achieved at least 45.
# [5] = Protein eluted from raw skin (leather deliming application); conditions: 0.5% of protease
# Experimental: A 20 g of raw skin finely cut into pieces of suitable size and 14 ml of distilled water was mixed in a 50 ml test tube. Then, 0.5% sodium bisulfite and 0.5% ammonium sulfate on the basis of the weight of skin was added thereto and the mixture was incubated for 15 minutes at 26° C. Subsequently, 0.2% of detergent and 0.5% of deliming agent was added thereto and waited for 30 minutes and 1 hour, respectively, before measuring the amount of protein eluted from the skin. In the presence of the 0.5% of protease, the protein eluted amounted to 1054 mg/ml and 1062 mg/ml after 30 minutes and 60 minutes, respectively. In the absence of the protease, the protein eluted amounted to 304.5 mg/ml and 329.5 mg/ml after 30 minute and 60 minutes, respectively.
molecule,measurement,setting,value
"protease: zinc-binding metalloprotease from Aranicola proteolyticus HY-3, amino acid sequence SEQ ID NO. 1, apparent molecular weight about 51.5 kDa (protein, listed as Aranicola proteolyticus, BINDING (192) Zn binding site, 1, apparent molecular weight about 51.5 kDa) MQSTKKAIEITESSLAAASSAYNAVDDLLHYHERGNGIQVNGKDSFSTEQAGLFITRENQTWNGYKVFGQPVKLTFSFPDYKFSSTNVAGDTGLSKFSAEQQQQAKLSLQSWSDVANITFTEVGAGQKANITFGNYSQDRPGHYDYDTQAYAFLPNTIYQGQNLGGQTWYNVNQSNVKHPASEDYGRQTFTHEIGHALGLSHPGDYNAGEGNPTYRDASYAEDTREFSLMSYWSETNTGGDNGGHYAAAPLLDDISAIQHLYGANQTTRTGDTVYGFNSNTGRDFLSTTSNPQKVIFAAWDAGGNDTFDFSGYTANQRINLNEKSFSDVGGLKGNVSIAAGVTIENAIGGSGNDVIVGNAANNVLKGGAGNDVLFGGGGADELWGGAGKDTFVFSAVSDSAPGASDWIKDFQKGIDKIDLSFFNQGAQGGDQIHFVDHFSGAAGEALLSYNASNNVSDLALNIGGHQAPDILVKIVGQVDVATDFIV",pH of maximum activity,[1]; azocasein substrate,8.0
same,relative activity,"[1]; pH 3.0, 37° C.",43%
same,relative activity,"[1]; pH 4.0, 37° C.",66%
same,relative activity,"[1]; pH 5.0, 37° C.",73%
same,relative activity,"[1]; pH 5.5, 37° C.",77%
same,relative activity,"[1]; pH 6.0, 37° C.",79%
same,relative activity,"[1]; pH 7.0, 37° C.",81%
same,relative activity,"[1]; pH 7.5, 37° C.",83%
same,relative activity,"[1]; pH 8.0, 37° C.",100%
same,relative activity,"[1]; pH 8.5, 37° C.",99%
same,relative activity,"[1]; pH 9.0, 37° C.",90%
same,relative activity,"[1]; pH 9.5, 37° C.",80%
same,relative activity,"[1]; pH 10.0, 37° C.",78%
same,relative activity,"[1]; pH 11.0, 37° C.",76%
same,relative activity,"[1]; pH 12.0, 37° C.",71%
same,activity relative to maximum activity,[1]; pH of 5.0 to 12.0,at least 70%
same,activity under high salt concentrations,[2]; high salt concentrations,retains high activity
same,relative activity,[2]; salt concentration 0 mM NaCl,100%
same,relative activity,[2]; salt concentration 170 mM NaCl,134%
same,relative activity,[2]; salt concentration 340 mM NaCl,173%
same,relative activity,[2]; salt concentration 510 mM NaCl,200%
same,relative activity,[2]; salt concentration 680 mM NaCl,215%
same,relative activity,[2]; salt concentration 1020 mM NaCl,203%
same,relative activity,[2]; salt concentration 1360 mM NaCl,196%
same,relative activity,[2]; salt concentration 1700 mM NaCl,155%
same,activity maintained at low temperature,"[3]; 4° C. to 15° C., relative to maximum activity",about a half of the maximum activity
same,temperature of maximum activity,[3]; measured from 4° C. to 80° C.,37 °C
same,relative activity,[3]; temperature 4 ° C.,43%
same,relative activity,[3]; temperature 10 ° C.,45%
same,relative activity,[3]; temperature 15 ° C.,50%
same,relative activity,[3]; temperature 20 ° C.,76%
same,relative activity,[3]; temperature 25 ° C.,81%
same,relative activity,[3]; temperature 30 ° C.,93%
same,relative activity,[3]; temperature 37 ° C.,100%
same,relative activity,[3]; temperature 45 ° C.,28%
same,relative activity,[3]; temperature 50 ° C.,22%
same,relative activity,[3]; temperature 60 ° C.,20%
same,relative activity,[3]; temperature 70 ° C.,14%
same,relative activity,[3]; temperature 80 ° C.,3%
same,"Ea value (hydrolysis of azocasein), activation energy in Arrenius plot",[3]; temperatures between 4° C. and 37° C.,2.43 kcal/mol
same,relative activity,[3]; temperatures between 20° C. to 40° C.,at least 75%
same,degrading ability (albumin in 24 hour reaction defined as 100),[4],at least 45
same,protein eluted from the skin,[5]; after 30 minutes,1050 µg/mL
same,protein eluted from the skin,[5]; after 60 minutes,1060 µg/mL
